Measured values: the DeepSol protein solubility set

Experiment: soluble on expression in E. coli; label from the status in PepcDB or PDB records

Sequence	soluble on expression in E. coli
MADNPTNLRNADFRKLLTSARSDRPAVSAFAKPADPKTGDDKPASFKHKHLKPAKFKKPQAAAHGKAKKEKTEADEDEAALKNILKNYRDRAAERRKQGDEKEDPSKLTAAYRAVPGDARSAQDQADLRKQAILESKYLGGDLEHTHLVKGLDYSLLNKVRSEIDKSDDDDDDDIDTAFDEKVTSSSSSSKPSEASLLAQELAQSHSENRMVRSLHRVLFKNEVPLHNQLFAKGRMAYVVELEDEETDIPTTLLRSLHDLPRAESAQSIQANNLIILKLSHVLSHLRAEPKKKKKEEFRVQLGSRDAPGAAAAAPGAKGDSIYDDLDDYVPSRKSRDSRDAGRRGSRRDRSRDRSRDRDRDRDRDNRDRYFEKSANSRREEEQNRREQQRERERAEQERRREREKEREQEKAKEREKKRKELEESSGYDECYPGGLVEMGGAWDSDEEADYSKMDAGPKKNQAVNRWDFDTEEEYASYMEGREALPKAAYQYGVKNGEGGRKNKKQSAVSDAKRLDRELNEINKIMDKRKAGGDGAGGGGDYKKPKY	not soluble
MADNSDANGVPYYFLINMGGGFVEGEQYQVTIDVNKDAHALVTTQTPTYVYKCEKGQLTQQNTSITLEENSYLEYMADEVIPYLKSRYFQTSRIDMDKSAHLIYSDGVTAGWSHEDLPFQYHYFRNLTQIYQDNELVYSDQTLLEPEKQDMFKLGYFEGWRNYNSLVMVSPNIDEAFVKALQKHLEGLNLESDFAISSLDISGLVLRILGKTAEDNRRIIYSCADYFRQEIHGLTPLNLRKNDMRRLEHHHHHH	not soluble
MADRNLRDLLAPWVAGLPARELREMTLDSRVAAAGDLFVAVVGHQADGRRYIPQAIAQGVAAIIAEAKDEASDGEIREMHGVPVVYLSQLNERLSALAGRFYHEPSENMRLVAVTGTNGKTTTTQLLAQWSQLLGETSAVMGTVGNGLLGKVIPTENTTGSAVDVQHVLASLVAQGATFGAMEVSSHGLVQHRVAALKFAASVFTNLSRDHLDYHGDMAHYEAAKWMLYSTHHHGQAIVNADDEVGRRWLASLPDAVAVSMEGHINPNCHGRWLKAEAVEYHDRGATIRFASSWGEGEIESRLMGAFNVSNLLLALATLLALGYPLTDLLKTAARLQPVCGRMEVFTAPGKPTVVVDYAHTPDALEKALQAARLHCAGKLWCVFGCGGDRDKGKRPLMGAIAEEFADIVVVTDDNPRTEEPRAIINDILAGMLDAGQVRVMEGRAEAVTNAIMQAKDNDVVLIAGKGHEDYQIVGTQRLDYSDRVTAARLLGVIA	not soluble
MADSTITIRGYVRDNGCSVAAESTNFTVDLMENAAKQFNNIGATTPVVPFRILLSPCGNAVSAVKVGFTGVADSHNANLLALENTVSAASGLGIQLLNEQQNQIPLNAPSSALSWTTLTPGKPNTLNFYARLMATQVPVTAGHINATATFTLEYQDNHHHHHHKQADSTITIRGYVRDN	soluble
MADTFFFTPSRRLTVANVAELTGAKLLNPEFSNTVINTLSSLESAGKGSLVFVEHRKFSDALVGSSAVAVFCTNEIVFKVPESMAILVTSTPQRDFAQIGRILFPDSVKPMPWFGQREISPHAHIHPSAKLAGDVCIEAGAVIGRNVEIGSGSLIASTAVIGENCRIGCDCYIAPKVTVQYSLIGDKVHLYPGACIGQDGFGYIGGASGIEKVPQLGRVIIEDGVEIGANTTIDRGTFEDTIIGEGSKIDNLVQIAHNVKIGRYCLIAAQCGIAGSTSIGDMSQLGGSVGVADHIVIGKYVQIAAGSGVMNDIPDGEKWGGSPARPFKQWFREVAALRSIGKVKKEKR	not soluble
MADVALRITETVARLQKELKCGICCSTYKDPILSTCFHIFCRSCINACFERKRKVQCPICRSVLDKRSCRDTYQITMAVQNYLKLSEAFKKDIENMNTFKSLPPEKMFMESQMPLDITIIPENDGKRCAPDFAIPFLPVRRKRPSRPQPPSAFAEEPAEPVEPPEPATKQPVELQSRVFPLEKLKKDVETSTETYKISREELKNVDIEEYINTLRENSTEIDEIDALFQLMPTMRQFLRNNINQLMEKFHVAPPKKSEKPANRRVSFASSQDLENIKIMTASESLETPPEPIQKLAQKPEVFKSTQNLIDLNLNTAVKKPVVVASDDDEVVEDSEGELQIDEDDLANVTCATSVRNIGKSLCAEYIRGVRQICRICRLPSSANFKKVDLPNLPSSANFEICRTRQKFDSTISTKTTDFFAKNSQLIELVQQCGGEILSCYENLSPEKLYIIFSKHSKAIEESKNIENLYKCDVVTMEWVLDSISEYLILPTQPYKAVDSIGCLQD	not soluble
MAEECSGNCDSCGSSSDCSDTKKMMEQQNAQIRDNMSKIKYKIAVMSGKGGVGKSTVTVNLAATLNMMGYKVGVLDGDIHGPNIPQMLGVDQIQPMADENGIYPVSTPQGIKTMSIGYFLPDKNTPIIWRGPKASGAIRQFLSDVNWGELDFLLIDTPPGSGDIQITTLQAIPDIDGVVIVTTPEEVSVLDARKSVSAANTLEIPIIGIVENMGGFVCPECDKVIDIFGKGGGEKAAKELNVFFLGRIPLDIKARVASDRGVPMVTMDCKASEEFKKVVNTVLERIKKELEHHHHHH	soluble
MAEEFVTLKDVGMDFTLGDWEQLGLEQGDTFWDTALDNCQDLFLLDPPRPNLTSHPDGSEDLEPLAGGSPEATSPDVTETKNSPLMEDFFEEGFSQEIIEMLSKDGFWNSNFGEACIEDTWLDSLLGDPESLLRSDIATNGESPTECKSHELKRGLSPVSTVSTGEDSMVHNVSEKTLTPAKSKEYRGEFFSYSDHSQQDSVQEGEKPYQCSECGKSFSGSYRLTQHWITHTREKPTVHQECEQGFDRNASLSVYPKTHTGYKFYVCNEYGTTFSQSTYLWHQKTHTGEKPCKSQDSDHPPSHDTQPGEHQKTHTDSKSYNCNECGKAFTRIFHLTRHQKIHTRKRYECSKCQATFNLRKHLIQHQKTHAAKTTSECQECGKIFRHSSLLIEHQALHAGEEPYKCNERGKSFRHNSTLKIHQRVHSGEKPYKCSECGKAFHRHTHLNEHRRIHTGYRPHKCQECVRSFSRPSHLMRHQAIHTAEKPYSCAECKETFSDNNRLVQHQKMHTVKTPYECQECGERFICGSTLKCHESVHAREKQGFFVSGKILDQNPEQKEKCFKCNKCEKTFSCSKYLTQHERIHTRGVKPFECDQCGKAFGQSTRLIHHQRIHSRVRLYKWGEQGKAISSASLIKLQSFHTKEHPFKCNECGKTFSHSAHLSKHQLIHAGENPFKCSKCDRVFTQRNYLVQHERTHARKKPLVCNECGKTFRQSSCLSKHQRIHSGEKPYVCDYCGKAFGLSAELVRHQRIHTGEKPYVCQECGKAFTQSSCLSIHRRVHTGEKPYRCGECGKAFAQKANLTQHQRIHTGEKPYSCNVCGKAFVLSAHLNQHLRVHTQETLYQCQRCQKAFRCHSSLSRHQRVHNKQQYCL	soluble
MAEIRVGTASWTDPTLLASGWYPPGVRNHPERRLRYYAQHFDTVEVDSTFYALPRLEVVRKWAERTPEGFLFHVKAYSAFTGHGLEASALPKDLQALLPQKEGHLSQREVPEEVVEEAWNRFFASLAPLREAGKLGYLHFGLPPWTEPKPRSFRYLERLAERTQGYLVAVEFRNPRWYTAWGFVKRELMRLGLAHVSVDAPPHPEAPPRVLEPTREVAVLRCHGRNAETWKGPHQKPYERFNWRYSEEELLDLAEATRTLAAQAERVFVIFNNNYGTQGVEAALGLKRLLGLGKPPWAEGPFS	soluble
MAEKEHNPGNVKPNRSWTSVLGTKITFSEGLILNIEGYYKYIFNRMYIPVSIGLDDFDIRPQFNGEGRVWGIDLMLQKLQSRYWDGWLSYSYSWARYRDPSSGNATIGFSGGTRGNDWYFPNFHRFHNLNLVINIKPAPQFNFYTRFGLASGTQLPRRTTDRPATYPVFMFDDPETPGIPKFVQRYNWPSETDEDNRTTPTLSMDIKFSFFGKNRTGKTRYEIYFALENVLSLVYRPQGNTRFNTFTGVIETGSDAASYGLPIPIPSFGFKFSY	not soluble
MAEKLGPEKRHAFVHNGQKVFEWDQTLEEVNMYIELPKGVPTKLFHCAIQATHVEVGIRGNPPYLNFYICGSYFLYELSIQFSEQFDEWTPSSEDGEMHITLQKREKGKTWSSPIQGQGSLDPYAADQEQKRLMLQRFQEENPGFDFSQAQFTGTCPDPRTFMGGIRSD	soluble
MAELACFCYPHLENDSYKFIPFNNLAIKAMLTAKVDKKDMDKFYDSIIYGIAPPPQFKKRYNTNDNSRGMNFETIMFTKVAMLICEALNSLKVTQANVSNVLSRVVSIRHLENLVIRKENPQDILFHSKDLLLKSTLIAIGQSKEIETTITAEGGEIVFQNAAFTMWKLTYLEHQLMPILDQNFIEYKVTLNEDKPISDVHVKELVAELRWQYNKFAVITHGKGHYRIVKYSSVANHADRVYATFKSNVKTGVNNDFNLLDQRIIWQNWYAFTSSMKQGNTLDVCKRLLFQKMKPEKNPFKGLSTDRKMDEVSQVGV	soluble
MAELLLGVNIDHIATLRNARGTDYPDPVQAAFIAEQAGADGITVHLREDRRHITDRDVRILRQTLHTRMNLEMAVTEEMLAIAVETRPHFCCLVPEKRQEVTTEGGLDVAGQRDKMRDACARLAAAGIQVSLFIDADETQINAAAEVGAPFIEIHTGCYANAETDAEQAKELARIASAATLAARLGLKVNAGHGLTYHNVKAIAALPEMHELNIGHAIIGRAVMTGLKEAVAEMKRLMLEARG	not soluble
MAENVGSDSSEFESISSSQKSYLKNCPFAGHEALPTKSTDSDNTEVLGNQISPAVVKTPILSFSSPTSLDSINDDVFRTPPENASLSSAAESEPRVGVSEIKLQGGSNLTTPFSMAETTLVSSSPSLPAENVRVSESNLKSSSSTAKTTPVSASPSVNARVSESNLNSSSSTTPVSVSPSEKVRVFETTPVSASPSEKVRVFETKCHSDSGDSVPLSSSPPSVAADDVRVPAKHLDSDSSPPTAIGRTMVLVKQRISASDNSASSSASEGTKVSKTENSGEVLPFKEIIEALLRNSGEKLNERDDKVSYVEILKQCGLKFPK	soluble
MAEPAQETPCFSMEKAERAFLDGNFEEALKHFFVCIRMLPVERRGVYEDQFAAALHGWIALDHNNASRAVCLYPQIKELFPETIRTKIALIRAVQGTEQSKWLLNCLPICKDSMDLATKPEDLVALRIARVNLTTIPFPQWHIRMINDVKRNEAFAKALNDTIKSRITVVFDIGSGTGILSAIAARKTNLVTALEENMCLTMISKEVLKRNGVESRVNVHAKNSTYFETCEKADIVVSETLDCCVFGEKIVETFLDAHVRFSHDRTIFIPHQATVYVRLFSCREIFDIHCQDYGGVRYRSEYVKIGESDAEQPYWCASAADYSQFELLSGSVAMHSVDFSSIANLKDSLANSNSFKIRPAKDGVAHGFSVHFTSDLTGHGDNIIDSSKSRAWDLGIIPFKEPCLVKCDKEYEGSWKLLNNRLDVYNDFYDENLQKHEDSLRYETASLDQLQKIRDDSYFKAMMGEIDPIELPFTRDISSSIPAQCVLNTVESQTPIRHLITNFCRYDGTLDQETFFRIEEFVGFRDHVQKIVPTKFRILGHLFYSDRVHFDARPDPSAHCQVDLSTVRSFNLREMRDIRLTQREDIVMASKEFVLYDFNISAEKFRQDTYITVTQDVTVQPTRPIADGVIYEFEILGIRNTKLRPVAAFLFPERVNTNPDMTVVFDLHLGEMLISLKDLP	not soluble
MAEPKSFNIPYRSKLTERIEPGQTLIIRGKTIDESKRFNINLHKDSPDFSGNDVPLHLSIRFDEGKIVYNAYTKGTWGKEERAKNPIKKGDDFDIRIRAHDSKFQVSINHKEVKNFEHRIPLNSVSHLSIDGDVVLNHVQWGGKYYPVPYESGIAADGLVPGKTLVVYGTPEKKAKKFNINLLKKNGDIALHFNPRFDEKANGFMCAKPTPGSVVRNSLVNGEWGNEEREGKNPFERLTAFDLEIRNEEFAFQIFVNGERFASYAHRVDPHDIAGLQIQGDIELTGIQVVNNQPAQE	not soluble
MAEPLFDMSATGRPRILILGGTTEARQLAERLVSEPHYDTAISLAGRTADPRPQPLPTRTGGFGGAEGLAVFLRERNIALLIDATHPFAARISLNAAAAAKMTGTPLLALRRPAWAAEPGDRWTCVGSVAEAVPALGEAPRRVFLAIGRQEAFHFERAPQHSYVVRSVDPVMPPLDLPDVTAILASGPFAQADETELLERHGIDVIVAKNSGGAATYGKIAAARQLGIEVVMVERHKPADVQSVGDCDEALERIRQWLSPVKDRGV	not soluble
